B1: PtGH3-1: GH3 protein, accession EEE70316 (protein, listed as Populus trichocarpa)
chain: MAIESVLSPLGPPACEKDAKALQFIEDMTANVDLVQERVLKEILTSNAETEYLQKYHLNGATDRDSFKSKIPMVTYEDLQPQIQRIANGDKSPILSSHPISEFLTSSGTSAGERKLMPTIEEEMDRRQLLYSLLMPVMNLYVPGLDKGKGLYFYFIKAEAKTPGGLVARPVLTSYYKSKQFKTRPYDPYNVITSPNETILCVDSFQSMYSQMLCGLIMREEVLRVGAVFASGLLRAIRFLQLNWKELANDISTGSLNPKVTNPSIRECMAKILKPNQELAEFITKECSDENWERIITRIWPNTKYLDVIVTGAMAQYIPTLDYYSGGLPKPCTMYASSECFFGLNLRPMSEPSEVSYTIMPNMGYFEFLPHDPSAPAFSRESPPRLLDLADLEVGKEYELVITTYSGLNRYRVGDILLVTGFYNKAPQFRFVRRKNVLLSIESDKTDEAELQKAIDNASLLLREFNTSVVEYTSYAETKIIPGHYVIYWELLVKDPANSPTEEVLNQCCLAMEESLNSVYRQSRVADNSIGPLEIRVVKNGTFEELMDYAISRGASINQYKVPRCVSFTPIMELLDSRVVSKHFSPSVPHWTPERRS
B2: PtGH3-2: GH3 protein, accession EEE87842 (protein, listed as Populus trichocarpa)
chain: MAVDNALSSPLGPPACEKDAKALQFLEEMTRNADSVQEDVLAKILTQNSEVEYLKRFNLDGAIDRETFKSKIPMIRYEDLQPEIQRIANGDRSSILSAHPISEFLTSSGTSAGERKLMPTIKQELDRRQLLYSLLMPVMNLYVPGLDKGKGLYFLFVKSETRTPGGLLARPVLTSYYKSDHFKTRPYDPYNVYTSPNEAILCADSFQSMYTQMLCGLLEREQVLRVGAVFASGLLRAIRFLQLHWRELSDDIESGMLNKKITDPTVKDCMVNILKPNPKLAEFVRMECGKENWEGIITRIWPNTKYLDVIVTGAMAQYIPTLDYYSGGLPKACTMYASSECYFGLNLNPMCKPSEVCYTIMPNMAYFEFLPHEPAGISQDSTPKLVDLADVELGKEYELVITTYAGLYRYRVGDILRVTGFHNSAPQFHFVRRKNVLLSIDSDKTDEAELQTAVENASQLLREFNTSVVEYTSHADTKTIPGHYVIYWELLVKDSANSPGDEVLNQCCLAMEESLNSVYRQGRVADNSIGPLEIRVVKNGTFEELMDYAISRGASINQYKVPRCVNFTPIMELLDSRVVSKHFSPALPRWAPERRR
B3: PtGH3-3: GH3 protein, accession EEE85053 (protein, listed as Populus trichocarpa)
chain: MAVDNALSSPLGPPACEKDAKALQFIEEMTRKTDSVQEDVLAKILIQNAEVEYLKRFNLDGATDRETFKSKLPTIRYEDLQPEIQRIANGDRSSILSTHPISEFLTSSGTSAGERKLMPTIKQELDRRQLLYSLLMPVMNLYVPGLDKGKGLYFLFVKSETRTPGGLLARPVLTSYYKSDHFKTRPYDPYNVYTSPNEAILCADSFQSMYTQMLCGLLEREQVLRVGAVFASGLLRAIRFLQLHWRELADDIESGMLNKEITDPSVKDCMVKILKPNPKLAEFVRMECSKENWEGIITRIWPNTKYLDVIVTGAMAQYIPTLDYYSGGLPLACTMYASSECYFGLNLNPMCKPSEVCYTIMPNMAYFEFLPHDPNGFTHDSTPKLVDLADVELGKEYELVITTYAGLYRYQVGDILRVTGFHNSAPQFHFVRRKNVLLSIDSDKTDEAELQKAVENASQLLREFNTSVVEYTSYADTKTIPGHYVIYWELLVKDLANSPSDEVLNQCCLAMEECLNSVYRQGRVADYSIGPLEIRVVKNGTFEELMDYAISRGASINQYKVPRCVNFTPIMELLDSRVVSKHFSPALPYWTPERRR
B4: PtGH3-4: GH3 protein, accession EEE95321 (protein, listed as Populus trichocarpa)
chain: MPEEAPMKNLVCEKSRKALQFIEDVTRNADEVQRKVLAEILSRNANVEYLQRYGLNGNKADREAFKKVMPVVSYEDLKPDIDRIANGDTSQIICSQPISEFLTSSGTSAGERKLMPTIEEELGRRSLLYSLLMPVMNQFVPGLDRGKGMYFLFIKSETKTPGGLLARPVLTSYYKSSYFRDRPYDPYTNYTSPNETILCQDSYQSMYSQLLCGLYQNYDVLRVGAVFASGFIRAIKFLEKHWILLCNDIRNGTIDPKISDPSVREAVLKILKPNQKLADFIEAECTRESWKGIITRLWPNTKYIDVIVTGTMSQYIPTLDYYCDGLPLVCTMYASSECYFGLNLNPLSKPSEVSYTLIPTMAYFEFLPVNRKNGLINSITAPTSLDQKKDQELVDLVDVKLGEEYELVVTTYAGLYRYRVGDILRVAGFKNKAPQFNFVCRKNVVLSIDSDKTDEVELQNAVQNAANHLLPFGASLTEYTSYADTSKIPGHYVLFWEICLSGTTPIPPSVFEDCCLAIEESLNSVYRQGRVSDKSIGPLEIRITERGAFDKLMDFALSQGASINQYKAPRCVKYAPIIELLNSRVVSNYISPKCPKWVPGHKQWCTPN
B5: PtGH3-8: GH3 protein, accession EEE78719 (protein, listed as Populus trichocarpa)
chain: MLPIFDPNDNEAGLKLLEDLTNNACQIQRQVLEYILTTNLHTGYLKSFLNGDSSKENFKNKVPIVNYEDIKPCIERIANGEPSSIISAQPITELLTSSGTSGGQPKMMPSTAEELERKTFFYNLLMPIMNKYVDGLDQGKGMYLLFTKPEISTPSGLMARPVLTSYYKSSNFRNRAFNRYNVYTSPDETILCPDSKQSMYCQLLCGLVQREEVLRVGAVFASAFLRAIKFLEEYQKELCSNIRTGRLSDWITDPNCRNAVSSFLSKPNSELADLIEVECSGKSCEGIIKKLWPRTKYIEVIVTGSMAQYIPTLEFYSGGLPLVSTMYGSSECYLGINFKPLSNPSDVSYTLIPNMAYFEFLPVDKDNKKVIQAEKDVEAVDLEDVKLGHYYELVVTTFTGLYRYRVGDILMVTGFYNNAPQFRFVHRRNVVLSIDTDKTNEEDLLKAVTQAKVLLEPLGFLLTEYTSFADTSSIPGHYVLFWELKTQGTNDLPELDPITMEKCCSTVEESLDSIYRRCRKKDKSIGPLEIRVVTHGTFDALMDFCVSQGSSVNQYKTTRCIKSEEAFKILHSRVVGRFFSKKTPFWE
B6: PtGH3-5: GH3 protein, accession EEE97566 (protein, listed as Populus trichocarpa)
chain: MPEAPKNTLKPSDYNLAEKNKKSLQFIEDVTSNADEAQKKVLEEILSRNAHVEYLQRHGLNGQTNRETFKKVMPVINYEDIQPDINRIANGDASPILCSKPISEFLTSSGTSGGERKLMPTIVEELGRRSLLYSLLMPVMSQFVPDLEKGKGMYFLFIKSEAKTPGGLVARPVLTSYYKSTHFKDRPYDPYTNYTSPNETILCPDSYQSMYSQMLCGLCQHKEVLRVGAVFASGFIRAIRFLEKYWKFLANDIRTGIIDPQITDPSIREAVMKILKPDAKLADFIEAECSKESWQGIITRLWPNTKYVDVIVTGTMSQYIPTLDYYSNGLPLVCTMYASSECYFGVNLNPICKPSEVSYTLIPTMAYFEFLPVNRNNGGINSVSRPKSLKEKEQQELVDLVDVKLDQEYELVVTTYAGLYRYRVGDVLRVVGFKNKAPQFSFICRKNVVLSIDSDKTDEVELQSAVKNAVNHLIPFDATLAEYTSYADTTTIPGHYVLFWELSLSGSTPIPPSVFEDCCLTIEESLNSVYRQGRVSDKSIGPLEIKIVEPGTFDKLMDYAISLGASINQYKTPRCVKFAPIVELLNSRAVSRYFSPKCPKWVPGHKQWNKN
B7: PtGH3-6: GH3 protein, accession EEE95183 (protein, listed as Populus trichocarpa)
chain: MPEAPKNTLKTSDYNLAEKNKISLQFIEDVTSNADEVQKKVLEEILSRNAHVEYLQRHGLNGQTNRETFKKAVPVITYEDIQPDINRIANGDTSQILCSKPISEFLTSSGTSGGERKLMPTIEEELGRRSLLYSLLMPVMTQFVPGLEKGKGMYFLFIKSEAKTPGGLVARPVLTSYYKSTHFKDRPYDPYTNYTSPNETILCPDSYQSMYSQMLCGLCQHKEVLRVGAVFASGFIRAIRFLEKHWKLLANDIRTGIIDPQITDPSVREAVMKILKSDPKLADFIEAECSKESWQGIITRLWPNTKYVDVIVTGTMSQYIPTLDYYSNGLPLVCTMYASSECYFGVNLNPICKPSEVSYTLIPTMAYFEFLPVHRNNGVINSVSMPKSLNEKEQQELVDLVDVKLDQEYELVVTTYAGLYRYRVGDVLRVVGFKNKAPRFSFICRKNVVLSIDSDKTDEVELQSAVKNAVNHLIPFDATLAEYTSYADTTTIPGHYVLFWELSLNGSTPIPPSVFEDCCLTIEESLNSVYRQGRASDKSIGPLEIKIVEPGTFDKLMDYAISLGASINQYKTPRCVKFAPIVELLNSRVVTCYFSPKCPKWAPGHKQWSKN

assay: LC-MS assay of GH3 conjugation of IAA with Asp or Glu; type: biochemical; conditions: conjugation of IAA with Asp by recombinant GH3 protein; IAA-Asp product by LC-MS
Method in brief: (§1)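 N-terminal His-tagged GH3 homologs, expressed in E. coli C41(DE3) and Ni-NTA purified, at 44 to 164 μg/mL incubated 3 h at 30 °C in 20 mM Tris-HCl pH 8.0, 5 mM MgCl2, 1 mM DTT, 5 mM ATP, 5 mM auxin (IAA, 2,4-D or dicamba) and 5 mM Asp or Glu. Conjugates quantified by LC-MS against standards after MeOH precipitation; kinetics from Michaelis-Menten fits of initial velocities.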

| Molecule | kcat (hrs−1) IAA-Asp |
| --- | --- |
| B1 | 900.907 h⁻¹ |
| B2 | 679.646 h⁻¹ |
| B3 | 806.314 h⁻¹ |
| B4 | 660.985 h⁻¹ |
| B5 | 13.999 h⁻¹ |
| B6 | 941.117 h⁻¹ |
| B7 | 888.111 h⁻¹ |

same assay, conditions: conjugation of IAA with Glu by recombinant GH3 protein; IAA-Glu product by LC-MS

| Molecule | kcat (hrs−1) IAA-Glu |
| --- | --- |
| B1 | 39.695 h⁻¹ |
| B2 | 53.401 h⁻¹ |
| B3 | 44.225 h⁻¹ |
| B4 | 93.781 h⁻¹ |
| B5 | 568.780 h⁻¹ |
| B6 | 160.490 h⁻¹ |
| B7 | 181.954 h⁻¹ |

assay: LC-MS assay of GH3 conjugation of 2,4-D with Asp or Glu; type: biochemical; conditions: conjugation of 2,4-D with Asp by recombinant GH3 protein; 2,4-D-Asp product by LC-MS; 5 mM 2,4-D substrate
Method in brief: as §1

| Molecule | kcat (hrs−1) 2,4-D-Asp |
| --- | --- |
| B1 | 4.798 h⁻¹ |
| B2 | 0.934 h⁻¹ |
| B3 | 2.033 h⁻¹ |
| B4 | 0.740 h⁻¹ |
| B5 | 0.000 h⁻¹ |
| B6 | 3.142 h⁻¹ |
| B7 | 5.415 h⁻¹ |

same assay, conditions: conjugation of 2,4-D with Glu by recombinant GH3 protein; 2,4-D-Glu product by LC-MS; 5 mM 2,4-D substrate

| Molecule | kcat (hrs−1) 2,4-D-Glu |
| --- | --- |
| B1 | 0.181 h⁻¹ |
| B2 | 0.203 h⁻¹ |
| B3 | 0.845 h⁻¹ |
| B4 | 0.536 h⁻¹ |
| B5 | 0.559 h⁻¹ |
| B6 | 1.214 h⁻¹ |
| B7 | 2.816 h⁻¹ |

From patent US20150351390A1, “COMPOSITIONS AND METHODS FOR AUXIN-ANALOG CONJUGATION” (PIONEER HI-BRED INTERNATIONAL, INC., priority 2012, published 2015)
